Numbered stars: 1 amine (or outer) side, 2 acyl side, 3 side chain; on linkers, the order of the positions; unused ones are H or OH. Bridge positions count the residues as written; N and C are the ends. Square brackets hold non-standard residues; d marks the D form. Side chains are listed from the residue outwards. * marks the point of attachment. m‑COPhCH2 = meta-toluoyl group on the Ile3 alpha-amine, its methyl linked by thioether to hCys31, O=C(c1cccc(C[*:3])c1)[*:2]; C18 diacid = O=C(O)CCCCCCCCCCCCCCCCC(=O)*; γGlu = O=C(O)[C@H](CCC(=O)[*:2])N[*:1]; Palmitoyl = CCCCCCCCCCCCCCCC(=O)*; hCys = N[C@@H](CCS)C(=O)O; AEEA = NCCOCCOCC(=O)O
Molecular target: T1, human NPY2R Gi-protein coupled receptor (human, UniProt P49146 1-381)
T1 sequence (looked up): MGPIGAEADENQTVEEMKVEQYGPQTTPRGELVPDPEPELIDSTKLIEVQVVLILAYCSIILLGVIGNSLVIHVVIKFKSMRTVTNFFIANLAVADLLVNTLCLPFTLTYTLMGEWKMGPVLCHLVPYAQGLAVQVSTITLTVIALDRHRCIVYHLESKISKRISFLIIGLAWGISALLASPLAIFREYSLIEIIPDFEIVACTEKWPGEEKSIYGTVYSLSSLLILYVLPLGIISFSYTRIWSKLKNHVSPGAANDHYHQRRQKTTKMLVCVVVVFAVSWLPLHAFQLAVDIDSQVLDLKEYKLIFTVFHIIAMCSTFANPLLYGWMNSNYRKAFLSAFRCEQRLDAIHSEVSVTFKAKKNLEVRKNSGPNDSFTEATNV
Experiment: cell-based or functional assay

Row | Binder | Y2R EC50 (nM), inhibition of forskolin-induced cAMP (hY2 assay) [nM]
1 | GISPEAPGEK([AEEA-AEEA-γGlu-C18 diacid])ASPEELNRYYASLRHYLNEVTRQRY-NH2 (lactam N-29; also: psi-(R35,Y36) reduced amide bond) [Cyclic PYY Analog SEQ ID NO:72] | 1.75
2 | GISPEAPGEKASPEELNRYYASLRHYLNEVTRQRY-NH2 (lactam N-29; also: psi-(R35,Y36) reduced amide bond) [Cyclic PYY Analog SEQ ID NO:70] | 0.02
3 | {m‑COPhCH2}-IEPEAPGEDASPEELNRYYASLRAYLNK([γGlu-Palmitoyl])[hCys]TRQRY-NH2 (bridge N-29; not fully specified (bridges)) [Cyclic PYY Analog SEQ ID NO:22] | 4.4
4 | {m‑COPhCH2}-IAPEAPGEDASPEELNRYYASLRAYLNK([γGlu-Palmitoyl])[hCys]TRQRY-NH2 (bridge N-29; not fully specified (bridges)) [Cyclic PYY Analog SEQ ID NO:21] | 0.49

— patent US20180127476A1 (Janssen / Centocor, published 2018)
